Patent publication US20210253701A1 (Regeneron, published 2021)
Positions count from the first letter of the chain named. Blank lines part the entries; values can stand above or below the binder they belong to.

Assays:
[1] = target: T1, human CD3 (cell surface-expressed) (human, UniProt P07766 23-207; P04234 22-171); experiment: cell-based or functional assay
[2] = target: human MUC16 on OVCAR3 cells (human); experiment: cell-based or functional assay
[3] = target: T2, human MUC16 on OVCAR3 cells (human); experiment: FACS, OVCAR3 (MUC16+) cells
T2 construct: Endogenous MUC16 of the OVCAR3 cell line; also called Mucin 16

[4] = target: T1, human CD3 (cell surface-expressed); experiment: FACS, Jurkat cells
[5] = target: T3, soluble heterodimeric hCD3ε/δ.mFc protein (human); experiment: SPR 37 C, antigen-capture format
T3 construct: also called soluble human CD3; human CD3 heterodimeric protein

[6] = target: T3, soluble heterodimeric hCD3ε/δ.mFc …; experiment: SPR 37 C, antigen-capture format; remark: listed apart in the source

T1 sequence (P07766 23-207 limits assumed, chain 1 of 2): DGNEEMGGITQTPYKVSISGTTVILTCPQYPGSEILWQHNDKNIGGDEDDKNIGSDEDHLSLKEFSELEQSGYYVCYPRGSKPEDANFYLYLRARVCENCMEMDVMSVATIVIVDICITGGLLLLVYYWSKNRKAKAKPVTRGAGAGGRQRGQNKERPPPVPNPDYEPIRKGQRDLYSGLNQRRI
T1 sequence (P04234 22-171 limits assumed, chain 2 of 2): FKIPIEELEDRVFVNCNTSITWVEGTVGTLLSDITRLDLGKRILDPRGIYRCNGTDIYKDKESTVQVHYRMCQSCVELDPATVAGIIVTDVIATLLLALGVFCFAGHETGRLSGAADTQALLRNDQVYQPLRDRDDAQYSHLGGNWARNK
T3 sequence (P07766 23-126, stated change not applied, chain 1 of 2): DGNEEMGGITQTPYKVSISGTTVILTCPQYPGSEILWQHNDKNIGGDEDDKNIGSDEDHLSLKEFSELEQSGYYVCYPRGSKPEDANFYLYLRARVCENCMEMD
T3 sequence (P04234 22-105, stated change not applied, chain 2 of 2, further chain): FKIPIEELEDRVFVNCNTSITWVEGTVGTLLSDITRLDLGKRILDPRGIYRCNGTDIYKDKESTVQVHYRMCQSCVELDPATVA

T cell activation EC50 [1]: 0.00588 nM
OVCAR3 cell depletion EC50 [2]: 0.0224 nM
EC50 [3]: 1.2 nM
EC50 [4]: 3.21 nM
B1: BSMUC16/CD3-001 (bispecific antibody)
chain 1: QVQLVESGGGLVKPGGSLRLSCAASGFTFSNYYMSWVRQAPGKGLEWISYISGRGSTIFYADSVKGRITISRDNAKNSLFLQMNSLRAEDTAVYFCVKDRGGYSPYWGQGTLVTVSS
chain 2: EVQLVESGGGLVQPGRSLRLSCAASGFTFDDYSMHWVRQAPGKGLEWVSGISWNSGSKGYADSVKGRFTISRDNAKNSLYLQMNSLRAEDTALYYCAKYGSGYGKFYHYGLDVWGQGTTVTVSS
chain 3: not shown

T½ [5]: 4.7 min
B3: BSPSMA/CD3-1200 (bispecific antibody)
chain 1: QVQLVESGGGVVQPGRSLRLSCAASGFTFSSYGMHWVRQAPGKGLEWVAVISYAGNNKYYADSVKGRFTVSRDNSKKTLYLQMNSLRSEDTAVYYCAKDSYYDFLTDPDVLDIWGQGTMVTVSS
chain 2: B1 chain 2 with K58I, Y99D
chain 3: DIQMTQSPSSLSASVGDSVTITCRASQSINNYLNWYQQKPGKAPKLLIYTASSLLSGVPSRFSGSGSGTDFTLTISGLHPEDFATYFCQQSFSTPPITFGQGTRLDIK

T½ [5]: 2.3 min
B6: BSPSMA/CD3-900 (bispecific antibody)
chain 1: B3 chain 1
chain 2: B1 chain 2 with Y99D
chain 3: B3 chain 3

T½ [5]: 2.3 min
B8: BSPSMA/CD3-1900 (bispecific antibody)
chain 1: B3 chain 1
chain 2: B1 chain 2 with K58I, Y99D, L111M
chain 3: B3 chain 3

Kd [6]: > 500 nM
B9: BSPSMA/CD3-300 (bispecific antibody)
chain 1: B3 chain 1
chain 2: B1 chain 2 with K58I, Y99D, K105Y, H108Y, L111M
chain 3: B3 chain 3

Kd [6]: > 500 nM
B11: BSPSMA/CD3-400 (bispecific antibody)
chain 1: B3 chain 1
chain 2: B1 chain 2 with S33A, K58I, Y99D, H108Y, L111M
chain 3: B3 chain 3

T½ [5]: 3.5 min
B13: BSPSMA/CD3-1400 (bispecific antibody)
chain 1: B3 chain 1
chain 2: B1 chain 2 with K58I, L111M
chain 3: B3 chain 3

T½ [5]: 4.7 min
B14: BSPSMA/CD3-1300 (bispecific antibody)
chain 1: B3 chain 1
chain 2: B1 chain 2 with K58I, H108Y
chain 3: B3 chain 3

T½ [5]: 4.7 min
B17: BSPSMA/CD3-1600 (bispecific antibody)
chain 1: B3 chain 1
chain 2: B1 chain 2 with Y99D, L111M
chain 3: B3 chain 3

T½ [5]: 1.9 min
B18: BSPSMA/CD3-1500 (bispecific antibody)
chain 1: B3 chain 1
chain 2: B1 chain 2 with Y99D, H108Y
chain 3: B3 chain 3

Kd [6]: > 500 nM
B19: BSPSMA/CD3-004 (bispecific antibody)
chain 1: B3 chain 1
chain 2: B1 chain 2 with K58I, Y99D, H108Y, L111M
chain 3: B3 chain 3

Continued, binder first:

B2: BSPSMA/CD3-005 (bispecific antibody)
chain 1: B3 chain 1
chain 2: B1 chain 2 with K58I, H108Y, L111M
chain 3: B3 chain 3
T½ [5]: 2 min

B4: BSPSMA/CD3-1800 (bispecific antibody)
chain 1: B3 chain 1
chain 2: B1 chain 2 with K58I, Y99D, H108Y
chain 3: B3 chain 3
Kd [6]: > 500 nM

B5: BSPSMA/CD3-1100 (bispecific antibody)
chain 1: B3 chain 1
chain 2: B1 chain 2 with L111M
chain 3: B3 chain 3
T½ [5]: 11.3 min

B7: BSMUC16/CD3-002 (bispecific antibody)
chain 1: B1 chain 1
chain 2: B1 chain 2 with K58I, Y99D, H108Y, L111M
chain 3: not shown
T cell activation EC50 [1]: 0.0101 nM
OVCAR3 cell depletion EC50 [2]: 0.0306 nM
EC50 [3]: 2.69 nM

B10: BSPSMA/CD3-2100 (bispecific antibody)
chain 1: B3 chain 1
chain 2: B1 chain 2 with Y99D, H108Y, L111M
chain 3: B3 chain 3
T½ [5]: 4.9 min

B12: BSPSMA/CD3-1700 (bispecific antibody)
chain 1: B3 chain 1
chain 2: B1 chain 2 with H108Y, L111M
chain 3: B3 chain 3
T½ [5]: 3.8 min

B15: BSPSMA/CD3-200 (bispecific antibody)
chain 1: B3 chain 1
chain 2: B1 chain 2 with S33A, K58I, Y99D, K105Y, H108Y, L111M
chain 3: B3 chain 3
Kd [6]: > 500 nM

B16: BSPSMA/CD3-1000 (bispecific antibody)
chain 1: B3 chain 1
chain 2: B1 chain 2 with H108Y
chain 3: B3 chain 3
T½ [5]: 1.8 min

B20: BSPSMA/CD3-800 (bispecific antibody)
chain 1: B3 chain 1
chain 2: B1 chain 2 with K58I
chain 3: B3 chain 3
T½ [5]: 10 min
